# How the values were obtained:
# [1] = pH titration of fluorescence intensity, sigmoidal plot fit (pKa); assay type: physicochemical
# From the text: In order to display the responsive nature and full emissive potential of 2 and 3, their DMEM solutions were sequentially acidified (Fig. 4a and b). This caused a successive increase in emission intensity as acidity increased, with a maximum intensity reached at approximately pH 4. […] While it is recognized that the extracellular matrix of a solid tumour can be more acidic than normal tissue, intracellular organelles such as late endosomes and lysosomes are also acidic ranging between pH 4.5 and 5.5.[27] Encouragingly, the measured fluorescence enhancement factor (FEF) for 2 and 3 between pH 7.2 and that of 4.5 (as found in lysosomes) was 23 and 18 respectively (Fig. 4c). […]
# Fig. 4 Responsive emission characteristics of 2 and 3 (5 μM) in DMEM/10% FBS solutions containing TX100. (a) Fluorescence spectra of 2 at pH ranging from 8.0 (black) to 2.0 (red); inset sigmoidal plot fit of integrated fluorescence intensity versus pH. (b) Fluorescence spectra of 3 at pH ranging from 8.0 (black) to 2.0 (red); inset sigmoidal plot fit of integrated fluorescence intensity versus pH. […]
# Fig. S1. Absorption and fluorescence pH titration of 1
# Fig. S1 Absorbance (left) and fluorescence (right) spectra of 1 (5 μM) in PBS buffer/TX-100 (4 mM) starting at pH 8 (grey line) to pH 2 (red line). Fluorescence excitation: 630 nm; range: 650- 900 nm; […]
# (§1) Fig. S2. Absorption pH titration and fluorescence spectra of 2 […]
# [2] = Photophysical properties (absorption, emission, FEF, quantum yield) in DMEM/10% FBS; assay type: physicochemical
# From the text: The photophysical properties of the bio-responsive fluorophores 2 and 3 and the always-on control 10 were studied in solutions of Dulbecco's modified eagle's cell medium (DMEM) containing 10% fetal bovine serum (FBS). Absorption and emission wavelengths are listed in Table 1 and are, as would be expected for the NIR-AZA class, in the 690–730 nm range. At pH 7.4 fluorescence intensity of always-on10 was 17- and 15-fold greater than 2 and 3 respectively (Table 1). This illustrates both the emissive potential of the peptide conjugates and the ability to quench the bio-responsive derivatives in relevant biological media (Table 1, spectra and inset). […]
# as §1
# Fig. S2 Absorbance (left) spectra of 2 (5 μM) in DMEM (10% FBS) /TX100 (4 mM) starting at pH 8 (grey line) to pH 3 (red line). Fluorescence (right) spectra of series dilution (3 µM, 1.8 µM, 1.3 µM, 0.5 µM) in DMEM (10% FBS) /TX100 (4 mM) at pH=3. Fluorescence excitation: 630 nm; range: 650- 900 nm; slit widths: 5/5. Inset: Integrated fluorescence intensity vs. Absorbance; calculated fluorescence quantum yield Φ = 0.16. […]
# Fig. S3. Absorption pH titration and fluorescence spectra of 3 […]
# Fig. S3 Absorbance (left) spectra of 3 (5 μM) in DMEM (10% FBS) /TX100 (4 mM) starting at pH 8 (grey line) to pH 3 (red line). Fluorescence (right) spectra of series dilution (3.5 µM, 2.6 µM, 1.3 µM, 0.8 µM) in DMEM (10% FBS) /TX100 (4 mM) at pH=3. Fluorescence excitation: 630 nm; range: 650- 900 nm; slit widths: 5/5. Inset: Integrated fluorescence intensity vs. Absorbance; calculated fluorescence quantum yield Φ = 0.18.
# Fig. S4. Absorption and fluorescence spectra of 10 at pH 7.4, 6.6, 5.6 and 3.
# Fig. S4 Absorbance (left) and fluorescence (right) spectra of 10 (5 μM) in DMEM (10% FBS) /TX100 (4 mM). Fluorescence excitation: 630 nm; range: 650- 900 nm; slit widths: 5/5.
# MDA-MB 231 cells = test: Live MDA-MB 231 cell NIR-fluorescence/DIC time-lapse imaging; assay type: cell-based, human; settings: live MDA-MB 231 cells, 1–5 μM, 37 °C
# Procedure: With the responsive nature of 2 and 3 established, the potential for translation of these constructs to real-time live cell imaging was investigated. In order to illustrate the imaging effect of the bio-responsive characteristics of 2 and 3 the always-on10 was also imaged as a positive control. For live MDA-MB 231 cell experiments, chamber slide seeded cells were placed in a widefield microscope surrounded by an incubator to maintain the temperature at 37 °C and CO2 at 5%, following which an imaging field of view containing viable cells was chosen. The cells were treated with either 2, 3 or 10 (1–5 μM) and time-lapse NIR-fluorescence and differential interference contrast (DIC) images were acquired over 120 min. […] As expected, the […] morphology of the cell line is distinguishable by its membrane filopodia projections which is characteristic of its metastatic invasive phenotype (Movie S1 ^†). After 60 min incubation, both cell membrane and intracellular vesicle staining of the cytoplasm could be observed, both of which persisted at 120 min (Fig. 5b and c). […]
# Fluorescence and DIC images were acquired on an Olympus IX73 epi-fluorescent microscope fitted with an Andor iXon Ultra 888 EMCCD and controlled by MetaMorph (v7.8). Fluorescence illumination was provided by a Lumencor Spectra X light engine containing a solid-state light source. […]
# [3] = test system: MDA-MB 231 subcutaneous tumour; test: In vivo tumour fluorescence imaging, tumour-to-background ratio (TBR) over 96 h; design: species or system Balb/C nu/nu mice; settings: 2 mg kg–1, n = 4 (n = 2 for 10)
# Procedure: Each fluorophore was subjected to in vivo analysis using a standard dosing set at 2 mg kg^–1 delivered by i.v. tail vein injection. Post injection, images were acquired initially at regular intervals between 10 min and 9 h and thereafter less frequently at 24, 48 and 96 h. The method used for image analysis was consistent across all experiments with TBR values calculated by measuring tumour ROI fluorescence against an average of three equally sized background ROI regions, two of which were close to and one distant from the tumour (Fig. S11 ^†). […] As such, we adopted this value as a point of reference to compare result from different fluorophores and different time points for individual fluorophores. […]
# All in vivo experiments were conducted in University College Dublin, Ireland in compliance with relevant laws, and their institutional guidelines for animal protocols and the guidelines issued b y the Ethical Committee of University College Dublin and under license from the Health Products Regulatory Authority (HPRA), Dublin, Ireland which approved the experiments.
# All in vivo work was carried out in the biomedical facility, University College Dublin (UCD) . MDA-MB-231, a human breast adenocarcinoma cell line, was obtained from Caliper Life Sciences. Cells were maintained as a mono-layer culture in Minimum Essential Medium containing 10% (v/v) fetal bovine serum and supplemented with 1% (v/v) L–glutamine, 50 U/mL penicillin, […] streptomycin, 1% (v/v) sodium pyruvate and 1% (v/v) non-essential amino acids. All cells were maintained in 5% CO2 (v/v) and 21% O2 (v/v) at 37°C.
# Balb/C nu/nu mice (Harlan) were housed in individually ventilated cages in temperature and humidity-controlled rooms with a 12 hours light dark cycle. 2-5 Million MDA-MB 231 cells in 100 μL of a DPBS:Matrigel (50:50) solution were injected subcutaneously behind the fore limb of the 5-week-old mice using a 25-g needle. Tumors reached an average diameter of 6 mm prior to imaging […]
# images taken at early time points with less frequent imaging thereafter. Images were taken using the settings of excitation 675 nm (30 nm band pass filter) and emission 720 nm (20 nm band pass filter) narrow band pass filters and were analyzed using Living Image Software v4.7.2 (Caliper LS). The tumor-to-background ratio (TBR) was calculated by using the measured fluorescence signal in the ROIs of tumor target and average background. […]
# The fluorescence intensity of the animal was measured and normalized to photons per second per centimeter squared per steradian per micro-Watt per centimeter squared [(p/sec/cm2/sr) /(μW/cm2)].
# Mice were injected via tail vein (2 mg/kg) as follows; [n = 4 for 1 (3.7 nmol)], [n = 4 for 2 (13.2 nmol)], [n = 4 for 3 (10.5 nmol)], [n = 2 for 10 (10.1 nmol)], anesthetized, and imaged at various time points post injection. All fluorescence images were acquired with two second exposure (f/stop = 2).
# Color scale was adjusted and kept same for each experiment to show good contrast of target tumor region to background over time. The fluorescence intensity was not affected by color scale adjusting. […]
# For RGD competitive binding study, mice injected with 2 (13.2 nmol) with or without pre-injection with RDG 5 (89.5 nmol) and were imaged at 10 min interval for 3 hours, and then immediately euthanized by inhalation of carbon dioxide. For quantitative comparison, regions of interests (ROIs) […]
Compound,pKa [1],absorption or emission spectral changes between pH 7.2 and 4.5 ([2]; 5 μM in DMEM (10% FBS)/TX100 (4 mM)),"λ max flu (nm) ([2]; DMEM/10% FBS with 4 mM TX-100, 5 μM)","FEF pH 7.4/4.5 (fluorescence enhancement factor) ([2]; DMEM/10% FBS with 4 mM TX-100, 5 μM, pH 7.4 vs 4.5)","λ max abs (nm) pH 4.5 ([2]; DMEM/10% FBS with 4 mM TX-100, pH 4.5)","λ max abs (nm) pH 7.2 ([2]; DMEM/10% FBS with 4 mM TX-100, pH 7.2)","fluorescence intensity of always-on 10 relative to 2 ([2]; pH 7.4, DMEM/10% FBS, 5 μM)","fluorescence intensity of always-on 10 relative to 3 ([2]; pH 7.4, DMEM/10% FBS, 5 μM)","cell staining pattern over 120 min (MDA-MB 231 cells; 5% CO2, time-lapse over 120 min)","cell staining in the first 15 min of incubation (MDA-MB 231 cells; 5% CO2, widefield NIR-fluorescence and DIC)",TBR ([3]; 10 to 60 min (first 60 min) post i.v. tail vein injection),TBR ([3]; 3 h post i.v. injection),TBR ([3]; 6 h post i.v. injection),TBR ([3]; 24 h post i.v. injection),TBR ([3]; 48 h post i.v. injection)
N=C(N)NCCC[C@@H]1NC(=O)[C@H](CCCCNC(=O)COCCOCCNC(=O)COCCOCCNC(=O)COc2ccc(-c3cc(-c4ccccc4)c4n3[B-](F)(F)[N+]3=C(c5ccc(O)c([N+](=O)[O-])c5)C=C(c5ccccc5)C3=N4)cc2)NC(=O)[C@@H](Cc2ccccc2)NC(=O)[C@H](CC(=O)O)NC(=O)CNC1=O [compound 2],4.9,–,–,–,–,–,–,–,–,–,–,–,–,–,–
CC(=O)N[C@@H](CSC1CC(=O)N(CCC(=O)NCCOc2ccc(-c3cc(-c4ccccc4)c4n3[B-](F)(F)[N+]3=C(c5ccc(O)c([N+](=O)[O-])c5)C=C(c5ccccc5)C3=N4)cc2)C1=O)C(=O)NCCCC[C@@H]1NC(=O)[C@H](CC(=O)O)NC(=O)CNC(=O)[C@H](CCCNC(=N)N)NC(=O)[C@@H](NC(C)=O)CSSC[C@@H](C(N)=O)NC(=O)[C@H](CC(=O)O)NC(=O)[C@@H]2CCCN2C(=O)CNC1=O (stereo partly shown) [compound 3],4.9,–,–,–,–,–,–,–,–,–,–,–,–,–,–
"cCRGDKGPDC (disulfide) [compound 10, iRGD conjugated always-on NIR-AZA control with alkylsulfonic acid group, from fluorochrome 9 and peptide 8]",–,no absorption or emission spectral changes,733 nm,1.0,703 nm,705 nm,17 fold,15 fold,first showed plasma membrane before internal organelle staining,fluorescence specific to the plasma membrane,below 1.3,1.5,1.9,above 2,2
